The source of these data is US20070202103A1 (EMD LEXIGEN RESEARCH CENTER, published 2007).

Assay [1] addresses polypeptide including human fibronectin domains 7, ED-B, 8, and 9 (human) (UniProt P02751). The assay can be described thus: SPR, experiment 2.
The target in assay [2] is recombinant oncofoetal fibronectin FN7B89 (Fn MRGS-7B89-HHHHHH) (human). The assay is described as follows: SPR kinetics, FN7B89 on chip, bivalent fit.
Assay [3] deals with polypeptide including human fibronectin domains 7, ED-B, 8, and 9 (human) (UniProt P02751). The assay can be described thus: SPR.
For assay [4] the target is unchanged. The assay can be described thus: SPR, experiment 1; exp. 1.
The target is the same in assay [5]. The assay is described as follows: SPR, experiment 1.
Assay [6] has the same target. The assay is described as follows: SPR, experiment 2; exp. 2.
Assay [7] shares this target. The assay is described as follows: SPR, against huBC1.
Assay [8] concerns the target recombinant oncofoetal fibronectin FN7B89 (Fn MRGS-7B89-HHHHHH) (human). The assay can be described thus: SPR kinetics, against muBC1.
Assay [9] deals with T1, polypeptide including human fibronectin domains 7, ED-B, 8, and 9 (human, UniProt P02751 1173-1538, limits assumed).
T1 construct: domain: fibronectin domains 7, ED-B, 8, and 9
The assay is described as follows: SPR, experiment 2.

In assay [10] the target is T1, polypeptide including human fibronectin …. The assay can be described thus: SPR, experiment 2; exp. 2.
Assay [11] has the same target. The assay is described as follows: SPR, experiment 1; exp. 1.
Assay [12] has the same target. The assay is described as follows: SPR, experiment 1.

Where “and” joins values, the source holds several entries; their conditions need not be identical. Identical values can stand only once.

T1 sequence (P02751 1173-1538 limits assumed): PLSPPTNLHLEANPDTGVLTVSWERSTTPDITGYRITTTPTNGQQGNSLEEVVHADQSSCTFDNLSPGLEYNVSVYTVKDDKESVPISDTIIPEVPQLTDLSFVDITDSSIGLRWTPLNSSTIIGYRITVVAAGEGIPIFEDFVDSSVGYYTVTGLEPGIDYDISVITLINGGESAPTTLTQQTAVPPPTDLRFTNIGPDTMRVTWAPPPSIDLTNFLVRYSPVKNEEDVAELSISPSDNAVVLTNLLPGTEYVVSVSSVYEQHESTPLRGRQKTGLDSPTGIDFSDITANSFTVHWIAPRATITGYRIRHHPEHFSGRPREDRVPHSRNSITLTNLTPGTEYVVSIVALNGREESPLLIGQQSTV
Sequence of polypeptide including human fibronectin domains 7, ED-B, 8, and 9 (human) (P02751 1173-1538 limits assumed): as above

As for “muBC1 (murine constant regions) (antibody)”, in [1], the koff turned out to be 0.0011 s⁻¹ and the kon was determined as 1650 M⁻¹ s⁻¹. Also, in assay [2], the Kd came to 377 nM, the dissociation rate constant (koff) came out at 0.00065 s⁻¹ and the kon is 1700 M⁻¹ s⁻¹. The molecule also displayed a Kd in assay [3] of 686 nM.

“huBC1-muIL12 (HuBC1-g1-M1-muIL12) (from UniProt P43431 23-215; P43432 23-335)”: in assay [2], the Kd was 13.9 nM, the koff turned out to be 0.00109 s⁻¹ and the kon stood at 79500 M⁻¹ s⁻¹.

In the case of “huBC1-huIL12 (humanised BC1 antibody-human IL12 fusion protein) (from UniProt P29460 23-328)”, in assay [2], the Kd is 17.3 nM, the koff was found to be 0.00087 s⁻¹ and the kon was determined as 50900 M⁻¹ s⁻¹.

B1: huBC1-IL12 (BC1-IL12 fusion protein of Example 2) (protein, part only; not given: constant regions and IL-12 subunits, not shown: a dimerising Fc or GST)
heavy, part: EVQLVQSGADVKKPGASVKVSCKASGYTFTNYVMHWVRQAPGQGLEWLGYINPYNDGTQYNERFKGRVTMTGDTSISTAYMELSRLTSDDTAVYYCAREVYGNYIWGNWGQGTLVSVSS
light: EIVLTQSPGTLSLSPGERATLSCSASSSISSNYLHWYQQKPGQAPRLLIYRTSNLASGIPDRFSGSGSGTDFTLTISRLEPEDFAVYYCQQGSSIPFTFGQGTKLEIKRTVAAPSVFIFPPSDEQLKSGTASVVCLLNNFYPREAKVQWKVDNALQSGNSQESVTEQDSKDSTYSLSSTLTLSKADYEKHKVYACEVTHQGLSSPVTKSFNRGEC
With B1, the koff in assay [1] turned out to be 0.0016 s⁻¹; in assay [5] it was 0.0013 s⁻¹. Further, the kon turned out to be 19000 M⁻¹ s⁻¹ in [1] and 17000 M⁻¹ s⁻¹ in assay [5]. In addition, the Kd was determined as 7.6 nM in assay [4] and 8.3 nM in assay [6]. The fold tighter binding than the huBC1 antibody alone in [7] was > 10 fold and 16 fold.

B2: huBC1 (humanised BC1 antibody, human constant regions) (antibody, V domains shown)
VH: EVQLVQSGADVKKPGASVKVSCKASGYTFTNYVMHWVRQAPGQGLEWLGYINPYNDGTQYNERFKGRVTMTGDTSISTAYMELSRLTSDDTAVYYCAREVYGNYIWGNWGQGTLVSVSS
VL: EIVLTQSPGTLSLSPGERATLSCSASSSISSNYLHWYQQKPGQAPRLLIYRTSNLASGIPDRFSGSGSGTDFTLTISRLEPEDFAVYYCQQGSSIPFTFGQGTKLEIK
notes: Only variable domains are tied to the unfused antibody; also called huBC1 antibody; HuBC1 Ab
As for B2, in [8], the fold faster off-rate than muBC1 was 5 fold. Also, the fold faster on-rate than muBC1 in assay [8] stood at 34 fold. For the same molecule, the koff in assay [9] stood at 0.01 s⁻¹; in assay [2] it was 0.00312 s⁻¹; in assay [12], 0.0078 s⁻¹. For the same molecule, the on-rate constant (kon) was 73000 M⁻¹ s⁻¹ in assay [9], 57600 M⁻¹ s⁻¹ in assay [2] and 62000 M⁻¹ s⁻¹ in assay [12]. The Kd in [10] was found to be 138 nM; in assay [2], 54 nM; in assay [11] it was 125 nM.
